B1: O-phosphoseryl-tRNA synthetase (SepRS), Methanocaldococcus jannaschii (enzyme)
chain: MRFDIKKVLELAEKDFETAWRETRALIKDKHIDNKYPRLKPVYGKPHPVMETIERLRQAYLRMGFEEMINPVIVDEMEIYKQFGPEAMAVLDRCFYLAGLPRPDVGLGNEKVEIIKNLGIDIDEEKKERLREVLHLYKKGAIDGDDLVFEIAKALNVSNEMGLKVLETAFPEFKDLKPESTTLTLRSHMTSGWFITLSSLIKKRKLPLKLFSIDRCFRREQREDRSHLMSYHSASCVVVGEDVSVDDGKVVAEGLLAQFGFTKFKFKPDEKKSKYYTPETQTEVYAYHPKLGEWIEVATFGVYSPIALAKYNIDVPVMNLGLGVERLAMIIYGYEDVRAMVYPQFYEYRLSDRDIAGMIRVDKVPILDEFYNFANELIDICIANKDKESPCSVEVKREFNFNGERRVIKVEIFENEPNKKLLGPSVLNEVYVYDGNIYGIPPTFEGVKEQYIPILKKAKEEGVSTNIRYIDGIIYKLVAKIEEALVSNVDEFKFRVPIVRSLSDINLKIDELALKQIMGENKVIDVRGPVFLNAKVEIK
notes: O-phosphoseryl-tRNA synthetase (SepRS) of Methanocaldococcus jannaschii; wild type; source: E. coli B834(DE3) plus pRARE2, purified (heat treatment 75 °C, HisTrap, Heparin, Superdex 200)
B2: Sep-tRNA:Cys-tRNA synthase (SepCysS), Methanocaldococcus jannaschii (enzyme)
chain: DKYKNLTRSLTREFINLNPIQRGGILPKEAKKAVYEYWDGYSVCDYCHGRLDEVTCPPIKDFLEDIAKFLNMDCARPTHGAREGKFIVMHAICKEGDYVVLDKNAHYTSYVAAERAKLNVAEVGYEEEYPTYKINLEGYKEVIDNLEDKGKNVGLILLTHVDGEYGNLNDAKKVGKIAKEKGIPFLLNCAYTVGRMPVNGKEVKADFIVASGHKSMAASAPCGILAFSEEFSDKITKTSEKFPVKEIEMLGCTSRGLPIVTLMASFPHVVERVKKWDEELKKTRYVVDELEKIGFKQLGIKPKEHDLIKFETPVLDEIAKKDKRRGFFFYDELKKRGIGGIRAGVTKEIKMSVYGLEWEQVEYVVNAIKEIVESCK
modifications: PLP covalently bound to the side chain of Lys234
notes: Sep-tRNA:Cys-tRNA synthase (SepCysS) of Methanocaldococcus jannaschii; wild type; large domain Gly43-Lys295, small domain Trp296-Lys396; Homodimer
B3: CTD-truncated SepCysE of M. jannaschii (domain or fragment, Methanocaldococcus jannaschii, UniProt Q58876 1-110, looked up)
chain: MRVEYSKDLIRKGISTISQLKKAKIRVEKDDKKISYKDAKPGKIDVNEFKKAIYLLIEADDFLYKKAPKHELNEEEAKEFCKLIIKCQEHLNKILANFGFEFEEKEIDEG
notes: also called SepCysE(CTD)-truncated; source: E. coli B834(DE3) plus pRARE2, purified within the transsulfursome (same procedure as the wild type)
B4: SepCysE(del_linker1) of M. jannaschii, 10 residues of linker1 truncated (natural protein, Methanocaldococcus jannaschii)
chain: MRVEYSKDLIRKGISTISQLKKAKSYKDAKPGKIDVNEFKKAIYLLIEADDFLYKKAPKHELNEEEAKEFCKLIIKCQEHLNKILANFGFEFEEKEIDEGALYIVSNKKLFKKLKNKNPNLKVVCTEGMLDIEDMRAIGVPEKALEGLKKKVEIARKNVERFIEKYKPEKIFVVVEDDKDELLYLRAKNLYNAEKLDADEILD
notes: source: E. coli B834(DE3) plus pRARE2, purified within the transsulfursome (same procedure as the wild type)
B5: SepCysE (SepRS/SepCysS pathway enhancer), Methanocaldococcus jannaschii (natural protein)
chain: MRVEYSKDLIRKGISTISQLKKAKIRVEKDDKKISYKDAKPGKIDVNEFKKAIYLLIEADDFLYKKAPKHELNEEEAKEFCKLIIKCQEHLNKILANFGFEFEEKEIDEGALYIVSNKKLFKKLKNKNPNLKVVCTEGMLDIEDMRAIGVPEKALEGLKKKVEIARKNVERFIEKYKPEKIFVVVEDDKDELLYLRAKNLYNAEKLDADEILD
notes: SepCysE of Methanocaldococcus jannaschii; wild type

Tests used:
[1] = biological target: T1, SepRS (SepRS-SepCysE-SepCysS ternary complex, transsulfursome) (Methanocaldococcus jannaschii, UniProt Q59054); test: X-ray crystal structure, […] Å; format: binding; details: 10 mM ATP in crystallisation, pH 7.0; active site, Arg228, Glu230, His237, Tyr240; bent ATP
T1 construct: gene sepS; recombinant from E. coli B834(DE3), pET-15b; SepRS tetramer; only SepRS and SepCysE N-helix (Met1-Lys24) visible; with SepRS/SepCysS pathway enhancer SepCysE; O-phospho-L-seryl-tRNA:Cys-tRNA synthase

[2] = biological target: T2, SepCysS (SepCysE-SepCysS-tRNA^Cys complex) (Methanocaldococcus jannaschii, UniProt Q59072); test: X-ray crystal structure, […] Å; format: binding; details: covalent; Lys234; crystallised at pH 5.0 with tRNA^Cys
T2 construct: gene pscS; recombinant, coexpressed with SepCysE in E. coli B834(DE3); SepCysS homodimer; co-crystal with tRNA^Cys; with SepRS/SepCysS pathway enhancer SepCysE

[3] = biological target: the molecule itself; test: crystal structure; 50 μM SepRS-SepCysE-SepCysS(del_RRF), 30 μM tRNA^Cys, 10 mM ATP; 0.1 M Tris-HCl pH 7.0, 0.3 M ammonium sulfate, 36% MPD; 3.10 Å; only SepRS and the N-helix of SepCysE visible; PDB 5X6C
[4] = biological target: the molecule itself; test: crystal structure; SepCysE-SepCysS mixed with tRNA^Cys at a molar ratio of 1:1.2, protein 16 mg/ml; 0.1 M MES pH 5.0, 2.4 M ammonium sulfate; 2.6 Å; PDB 5X6B
[5] = biological target: B1; test: SEC-SAXS; SepCysE(CTD)-truncated transsulfursome in solution; Superdex 200 Increase 10/300 GL, room temperature; scattering compared with models from the crystal structures; details: both partners purified
[6] = biological target: B1; test: negative stain electron microscopy; purified wild type and del_linker1 transsulfursome adsorbed on carbon-coated grids; 20 mM HEPES-KOH pH 8.0, 200 mM KCl, 5 mM MgCl2; uranyl formate; class averaging; details: both partners purified

T2 sequence (Q59072 whole entry, one chain of several): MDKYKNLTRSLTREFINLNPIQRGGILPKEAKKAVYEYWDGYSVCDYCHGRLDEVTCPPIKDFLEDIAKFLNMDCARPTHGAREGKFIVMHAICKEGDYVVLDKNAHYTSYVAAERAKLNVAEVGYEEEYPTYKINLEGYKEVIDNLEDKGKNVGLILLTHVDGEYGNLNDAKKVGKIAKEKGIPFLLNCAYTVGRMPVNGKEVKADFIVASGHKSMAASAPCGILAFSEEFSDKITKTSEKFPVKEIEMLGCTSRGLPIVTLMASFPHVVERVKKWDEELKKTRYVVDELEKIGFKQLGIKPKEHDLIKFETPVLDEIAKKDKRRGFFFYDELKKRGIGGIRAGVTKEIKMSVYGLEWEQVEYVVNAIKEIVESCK

Molecule: Nc1ncnc2c1ncn2[C@@H]1O[C@H](COP(=O)(O)OP(=O)(O)OP(=O)(O)O)[C@@H](O)[C@H]1O [ATP]
X-ray crystal structure, 3.1 Å [1]: ATP was observed in the active sites of SepRS.

Molecule: Cc1ncc(COP(=O)(O)O)c(C=O)c1O [pyridoxal-5′-phosphate]
X-ray crystal structure, 2.6 Å [2]: PLP was covalently bound to the side chain of the conserved Lys234

Molecule: B1
stoichiometry N [3]: 4

Molecule: B2
stoichiometry N [4]: 2

Molecule: B3
binding result [5]: binds

Molecule: B4
binding result [6]: binds

Molecule: B5
stoichiometry N [4]: 2
binding result [6]: binds
